18 sequences from the DeepSol protein solubility set can be followed below.

This series is described as follows: soluble on expression in E. coli; label from the status in PepcDB or PDB records.
Consider “MGSDKIHHHHHHMNAPRFAAPARRTKKLPPLRVGIGGPVGSGKTTLLEMLCKGMRERYDLVAITNDIYTKEDQRLLTIAGALPEARIMGVETGGCPHTAIREDASINLEAVERMLARFPDADIVFIESGGDNLAATFSPELSDLTIYVIDVAGGEKIPRKGGPGITKSDLLVINKTDLAPLVGANLEVMASDTRKMRGERPYVMCNLKALDGVADVIAFIENKGLLTV”, for which the “soluble on expression in E. coli” value was “not soluble”.

“MGSDKIHHHHHHMNAQIKIINTANGYMALCQDTPEDITPAWFSVDFWREKSAVVGSSKGRYTTWFVAFEHSHWVLRHYWRGGMMEKFSKDAYFYTGLENTRAMGELRLLDALYREQFAVPKPIAANIVRDGLFYRADIIIERVDGAEDLVAKLTKGTMTQAQWHALGATIAQFHRRGVYHADLNAKNILWQPQQTDSAQERFYLIDFDRGELKTPNAKWQKANLDRLLRSFNKEQGKQPTLAFTPANWAALLEGYHAVVPKV”: the “soluble on expression in E. coli” value is “not soluble”.

In the case of “MGSDKIHHHHHHMNDLLPFLAQVSLFKGIETEELPKMLNRLNARKVSYKKNDVILREGQSVHSVGIMLSGKVKVVKEDFKGNTNVMTFIEPGAMFAEAYACTQTANLPFTVLSVMETKILWIDYRKIISTCTSACESHEKLIENMMKALASKSILLNQKIEHISKRTTQEKLLTYLFDQSKKSGSNEFEIPFSRQELADYLCVDRSAMSNELCKLQREGVLNFHLNHFKLSKSSSEAQL”, the “soluble on expression in E. coli” value is listed as “not soluble”.

For “MGSDKIHHHHHHMNEQFERLMVRVESLMARIESVLPQPLSAPDWTASVAYRYRKRGSGHGSLEPVRHLGAMRLTDLKEIDGQKDRIRRNTEQFVSGKPANNVLLTGSRGTGKSSLIKACLNEYSARGLRLIEVDKADLTDLPDIVDVVSGLPEKFIVFCDDLSFEEGEPGYKALKSILDGSIAAATPNVLIYATSNRRHLLPEYMMENLTYTHTEDGEVHPGEVVEEKISLSERFGLWVSFYPFSQDEYLTIVAQWLSSFGVNAEAISAARPASLVWALERGSRSGRVAYQFARDYAGQHAGTVQ”, the “soluble on expression in E. coli” value is “not soluble”.

In the case of “MGSDKIHHHHHHMNFLKKEPFKIFSMIYLLLDTITNRAGTERAVINLANNLHANGHRVSLVSVCTKEGEPSFQVEKGIEVHHLGIRLYGNALARKTVYFKAYRRIKALYKKREPVLLIGTNIFINTILSQISNRGRIFTIGCEHISYDIARPITKRIRGFLYSGLDAVVALTKRDQQSFEAILRGRSKAYVIPNQVSFTTVQRDATTHKQMLAIGRLTYQKGFEFMIEDASRVLRERPDWKLIIVGDGENESMLRKEIASRNMESQIEIHPSTPEIRKYYESSAIYLMTSRFEGLPMVLLEAEAYALPIISYDCPTGPRELIENGRNGFLVPMEAHEDFADKLRLLMDDETLRKKMGQESELMVKSYSPANIYECWKKLFVEIGYMN”, the “soluble on expression in E. coli” value was “not soluble”.

As to “MGSDKIHHHHHHMNFPIDEKLIREKQNELHIKDLGMASIRDLVALVTNLEKATGTKFCRMEMGVPGLPAPQIGIETEIQKLREGVASIYPNLDGLPELKQEASRFAKLFVNIDIPARACVPTVGSMQGCFVSFLVANRTHKNREYGTLFIDPGFNLNKLQCRILGQKFESFDLFEYRGEKLREKLESYLQTGQFCSIIYSNPNNPTWQCMTDEELRIIGELATKHDVIVIEDLAYFGMDFRKDYSHPGEPLYQPSVANYTDNYILALSSSKAFSYAGQRIGVLMISGKLYEREYPDLEESFGRLRFGEALSSSALYALSSGATHSAQWGMAAMLKACNDGEYNFRDSVIEYGRKARIMKKMFLDNGFNIVYDKDGNEPLADGFYFTVGYKGMDSSKLIEKFVRYGMCAITLKTTGSKRNEAMRICTSLLPESQFPDLEKRLQMLNAEG”, the “soluble on expression in E. coli” value is on record as “not soluble”.

On to “MGSDKIHHHHHHMNIEKTRFCINRKIAPGLSIEAFFRLVKRLEFNKVELRNDMPSGSVTDDLNYNQVRNLAEKYGLEIVTINAVYPFNQLTEEVVKKTEGLLRDAQGVGARALVLCPLNDGTIVPPEVTVEAIKRLSDLFARYDIQGLVEPLGFRVSSLRSAVWAQQLIREAGSPFKVLLDTFHHHLYEEAEKEFASRIDISAIGLVHLSGVEDTRPTEALADEQRIMLSEKDVMQNYQQVQRLENMGYRGIYAFEPFSSQLASWSEAEIEEQINRSVSLLLQ”, for which the “soluble on expression in E. coli” value is listed as “not soluble”.

Regarding “MGSDKIHHHHHHMNILFVSDLGSLGGGETSLFNLINEFASDNKKYNINNFLMCKTEGKLVDKCRGINVPCKVFDFKAAFKSFKFREISKAIKVIKEFLYSNNIDVIQCNEWSSAVLFSIISKVSSKNCKIIWICHGQWYKFNLIKRVLVNSLINRIISVSESVQNNLIINKLNKRKLLKQNLGIDLDRFRLGNGDKLREELHIQKEDKVLGVIARFQPIKGQKLVIEAARDIVEAGYKNYKFLLVGDSIFNNPKDSMYKNEVIEMIKEYKLQKNVLILGERNDVPDILALLDALIVPSINESFGMVVVEAFAAGCPVISTPCDGPMEIIKNGYSGVIINERNSENLKDAITDLMKEETDLEMMKINSMKESKKYDISNIAQFYCKQYALLCK”, the “soluble on expression in E. coli” value was “not soluble”.

For “MGSDKIHHHHHHMNINISGKRVLVTASTEGIGRGIAEAFLREGCNVVISSRNKDKIEKAILEMRKIGPSVWGFPADLTDFKSLEELVGYALKIMNGIDILVVNSGNPPKEPSYFFENTMEDWEYATKLYLLSAIKLTNLVYQYMKAQRWGRIFFLSSWTIKEPQRIFSLADITRAPLIQMAKLLSKELGEYNVNVNVILMGSFETEGAKRSLKKYAEKVGQPLDVIWKREVISQIPIGRTGDIKNELGSLLVFLSSDYAGYINGTSILIDGGMSRAI”, the “soluble on expression in E. coli” value is on record as “not soluble”.

As for “MGSDKIHHHHHHMNINSETKYCQTCGIPLDIDYTNLKADQNEEYCDYCLKNGVKLYDFSMDYLIYLWGLFPEEYYKEVGIRHTSSELREIMSRRLPEIKRWKQKINTAHIQYELVIRVQEYINCHLFDDLDSEKLSQIVCISKYHFRRLFKAVCGDSLGNYIQRLRLEYIAFKLISTNVSVSEILSQINYQNKHTLSRAFKNYFNCSIPEFRKRHSNACSEGKNPIQIEPSIERVPHTRIAYLKLERTHHVSHSFSVLWKQVLQFSESYGLLSKGCKYVSLTLDYPFITLEEQSRFMVGVTLPQSFKIPKGFGVYEVPAGEYAIFRFKGLYHELNRVYRYIYLDWLPANDYSLREPFTFETYINTPEKTPVSELITDIYIPVKKKEI”, the “soluble on expression in E. coli” value was “not soluble”.

As to “MGSDKIHHHHHHMNIQTFMLPSQKVSPELEILHADLQTEGQHPPILFLHGYTSGAWQFAQHWMPTLQANGWQSFALNLRGHGGSAGRETVTTARFLDYADDVARAIAYVRGQTDQTPILIGHSLGSVLARHYAAEHSVPGLGLLITIGMQGFMGWMMKRYPLQGMAGMMTGRPSAMFAKFGPQYDVMYAGHNKETVRGNVERLMAQPDSDKVFMDLSKLKLGLPAKSTPTFVMAGTRDPIASVESVEALGRSYAVEPVMLQDKAHDIVAGPDWNDGLQHLQAWLETAKF”, the “soluble on expression in E. coli” value is on record as “not soluble”.

In the case of “MGSDKIHHHHHHMNIRILGCHGSQVPGCNTTSFLVEENVLIDAGSITSTLTAEEQVKVDYIFVTHAHLDHVKEMMFMVDNLWYLQKSNPLTIVSIEPVIHALKTHLFNGLIWPDFSSLPNAENPVLRYEILEVGGKRNIGSFAVTAISVNHTVETVSYVIETGQGSMIFIGDTGPTEEIWKVANSIEDLKAIFVETSLPDEMNHIAEMTGHLTPAMLMKELFKLNNKNLDIYLYHMKDFYSKLITRQVAAMNQNRLHILEDGQTVRI”, the “soluble on expression in E. coli” value is “not soluble”.

With “MGSDKIHHHHHHMNITIVGAGATGGYFGARLAASGLNVTFLVREKRAAQLREKGLVIKSVVEDLTLEAPQIAINAEDIPACDLVLLGLKNYQLAASLPQLKVLVNRGAKILPFLNGVEHFEILAKELGQENVLGGVCKIISTLDSEGTIHHTSKVHQIIFGELEPSGKEFCLRLEQAMAKANFKVKYTENILNEIWSKYAFITVFSGVTSAGDLTTDQICAHEATVKVYRRSLEEMKSLADAYGAALSEDFVEQNVEGLPKYAKGSTSSMHQDMRKGLLLEVESLQGAAIRLAGRKNMELPTIETLYGLIKPYEMGSIG”, the “soluble on expression in E. coli” value is listed as “not soluble”.

Take “MGSDKIHHHHHHMNITSKLNQIIQECLVNRDSDLFIMPRFDKYQLLYRDAGGYRKSALIDRDEAEQIMMYIKYRADMGISERRRPQSGAMTWLNRQGELVNLRISTVGDFLDRPSMVIRFIYVLKQDEHILDSESMEKIQLATKLRGLMVFSGPMGSGKTTLIYEVARKLSETKMVMSIEDPVEIREHNFLQLQVNEKSGMSYQELLKNGLRNRPDVFIIGEIRDGKTAEIAIQAALSGHLVLTTVHSKSTQGVWNRIVELGVREEHLKEALTAVIYQRMIPAKVGDLKIMAEIKSFHPALKGTKKKWRERLEEWKESGQITKEVFEDFQYG”: the “soluble on expression in E. coli” value is recorded as “not soluble”.

“MGSDKIHHHHHHMNKNQYPKWEELPELDLYLDQVLLYVNQLINPKTITNDKLLTASMINNYVKHNYISKPIKKKYNRRQVARLIVITAFKQVFAIQEISQTLELLTADNHSEEAYNGFAACMNKEEVHDLPPVVISACQTLNLYQETQKLVLELGGKNKNA”: the “soluble on expression in E. coli” value is on record as “not soluble”.

Regarding “MGSDKIHHHHHHMNKPCIISVAITGSLPRKKDNPAVPITVSEQVESTQAAFEAGATLVHLHVRNDDETPTSNPDRFALVLEGIRKHAPGMITQVSTGGRSGAGNERGAMLSLRPDMASLATGSVNFPTRVYDNPPELVDWLAAEMKTYGIKPEVEAFDLSMIFQAAAMQAAGAIVGPLHIQFVMGIKNAMPVDREVLEFYVQTLKRLSPDATWTGAGIGRHQLTMARWSLELGGHCRTGLEDNVRLDKNTLAPSNAALVRQVAELCEEYGRPVATAAQAREIMSLG”, the “soluble on expression in E. coli” value is listed as “not soluble”.

As to “MGSDKIHHHHHHMNKSIFDDINSTNIGSYWTTLSQQMDPYLWETLMPNSKQIASDFVFYRGMSNAPKPLAPSAFGVPAIMRKRSGFDRVSDHTRYFKEGYYIDEAIRQQLLRVGANATQAEKDMINNHIFQDSMELLKGAQLTREIMRNQIIQTGKINVIGNGQTITADYQMKASHRVVNDKAWGTTGSTPFEDIQKARDLVGDDSDQVITRAVMNKATFNALMSDTNVKSTMLYDNGKLANVTIPQSELLNFLVTNYGLTVQIYDKRYMDIDGTKKKWIPDGRVIFLPDGELGKTIMSTTPEEADLAAASDVDMTLVDNGVAITTMLDSDPVNKKINVSQEVMPSFPQIDGIYILDAFAKTGTDPLATTPTAPASTTTTTDPKA”, the “soluble on expression in E. coli” value is on record as “not soluble”.

“MGSDKIHHHHHHMNLATPSQMTAASIETFDATSCAAFSACYPETPHKLVHRLRDHPLLQLDALAALGEELPAHSVEYNRADLPIGLNGGKAPPNGIGIGETIRNIASTGSWAALKNVEQVPAYAALLGELLEGLRPTIEARTGAMLKPQGFVFVTSPDGVTPYHFDPEHNILLQLMGSKVMTMFPAGDSRFAPDETHETYHTGGGRELFWRDELLGHGRQWPLSPGEALYVPVMSPHFVTNGPSPSVSLSITWRSEWSFAEADARAFNGLLRSMGLKPGAPRRWPASNRAKAMCWRLYGKVRGLR”: the “soluble on expression in E. coli” value is “not soluble”.
